Assay results from patent US20200317768A1 (published 2020).
Numbering of substitutions follows the chain as printed. Names and notes keep the numbering of the source.

T1: cynomolgus monkey FcγRIIa1 extracellular domain, His-tagged (cynomolgus monkey)
T1 construct: also called cyno FcgRIIa1; cynoFcγRIIa1; not shown: His-tag added to the C-terminus
T1 chain: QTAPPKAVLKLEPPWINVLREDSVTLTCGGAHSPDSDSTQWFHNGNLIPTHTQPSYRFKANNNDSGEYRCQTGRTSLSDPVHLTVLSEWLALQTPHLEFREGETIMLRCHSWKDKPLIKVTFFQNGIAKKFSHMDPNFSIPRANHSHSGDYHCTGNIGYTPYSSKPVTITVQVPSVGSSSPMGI

T2: cynomolgus monkey FcγRIIa2 extracellular domain, His-tagged (cynomolgus monkey)
T2 construct: also called cyno FcgRIIa2; cynoFcγRIIa2; not shown: His-tag added to the C-terminus
T2 chain: T1 chain with P95T, T121A, I127K, A128S, K130N, D135N, R142Q

T3: cynomolgus monkey FcγRIIb extracellular domain, C-terminal His-tag (cynomolgus monkey)
T3 construct: also called cyno FcγRIIb; cynoFcγRIIb; not shown: His-tag added to C-terminus
T3 chain: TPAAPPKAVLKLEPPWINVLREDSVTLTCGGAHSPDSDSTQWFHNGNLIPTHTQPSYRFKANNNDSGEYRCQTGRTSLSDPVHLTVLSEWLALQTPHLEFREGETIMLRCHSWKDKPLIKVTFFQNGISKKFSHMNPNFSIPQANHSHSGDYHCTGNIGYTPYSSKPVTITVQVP

T4: human FcγRIIb extracellular domain, C-terminal His-tag (human, UniProt P31994 43-217)
T4 construct: also called humanFcgRIIb; not shown: His-tag added to C-terminus
T4 sequence: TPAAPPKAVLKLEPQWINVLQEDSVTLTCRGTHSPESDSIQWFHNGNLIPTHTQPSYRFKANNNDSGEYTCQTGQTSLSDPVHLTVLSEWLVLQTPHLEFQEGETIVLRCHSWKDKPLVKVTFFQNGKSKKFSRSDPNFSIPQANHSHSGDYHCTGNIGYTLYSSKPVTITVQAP

T5: cynomolgus monkey FcγRIIa3 extracellular domain, C-terminal His-tag (cynomolgus monkey)
T5 construct: also called cyno FcγRIIa3; cynoFcgRIIa3; not shown: His-tag added to C-terminus
T5 chain: T1 chain with P95T, T121A, A128S, H133P, D135N

T6: cynomolgus monkey FcγRIIa2 extracellular domain, C-terminal His-tag (cynomolgus monkey)
T6 construct: also called cyno FcγRIIa2; cynoFcgRIIa2; not shown: His-tag added to C-terminus
T6 chain: T1 chain with P95T, T121A, I127K, A128S, K130N, D135N, R142Q

T7: cynomolgus monkey FcγRIIa1 extracellular domain, C-terminal His-tag (cynomolgus monkey)
T7 construct: also called cyno FcγRIIa1; cynoFcgRIIa1; not shown: His-tag added to C-terminus
T7 chain: T1 chain

B1: M103205H795-MY267/M103202L889-SK1 (antibody, human IgG1, kappa)
heavy: QVTLKESGPVLVKPTETLTLTCTVSGIDLSHDDISWVRQAPGKGLEWVGIISYAGSTYYASWAKGRLTISKDTSKNQVVLTMTNMDPVDTATYYCARGVPAYSHGGDLWGQGTLVTVSSASTKGPSVFPLAPSSKSTSGGTAALGCLVKDYFPEPVTVSWNSGALTSGVHTFPAVLQSSGLYSLSSVVTVPSSSLGTQTYICNVNHKPSNTKVDKKVEPKSCDKTHTCPPCPAPELLIGPSVFLFPPKPKDTLMISRTPEVTCVVVDVSDEDPEVKFNWYVDGVEVHNAKTKPREEQYNSTYRVVSVLTVLHQDWLNGKEYKCKVSNKALPKPIEKTISKAKGQPREPQVYTLPPSREEMTKNQVSLTCLVKGFYPSDIAVEWESNGQPENNYKTTPPVLDSDGSFFLYSKLTVDKSRWQQGNVFSCSVMHEALHNHYTQKSLSLSP
light: DIVMTQSPATLSLSPGERATLSCTSSQSVYHANWLSWFQQKPGQPPKLLIYWASTLAYGVPSRFSGSGSGTDFTLTISSLQPEDAATYYCAGGYGGGRYAFGQGTKVEIKRTVAAPSVFIFPPSDEQLKSGTASVVCLLNNFYPREAKVQWKVDNALQSGNSQESVTEQDSKDSTYSLSSTLTLSKADYEKHKVYACEVTHQGLSSPVTKSFNRGEC
notes: copies: 2 + 2
B2: MS_M103205H795-SG1/M103202L889-SK1 (antibody, human IgG1, kappa)
heavy: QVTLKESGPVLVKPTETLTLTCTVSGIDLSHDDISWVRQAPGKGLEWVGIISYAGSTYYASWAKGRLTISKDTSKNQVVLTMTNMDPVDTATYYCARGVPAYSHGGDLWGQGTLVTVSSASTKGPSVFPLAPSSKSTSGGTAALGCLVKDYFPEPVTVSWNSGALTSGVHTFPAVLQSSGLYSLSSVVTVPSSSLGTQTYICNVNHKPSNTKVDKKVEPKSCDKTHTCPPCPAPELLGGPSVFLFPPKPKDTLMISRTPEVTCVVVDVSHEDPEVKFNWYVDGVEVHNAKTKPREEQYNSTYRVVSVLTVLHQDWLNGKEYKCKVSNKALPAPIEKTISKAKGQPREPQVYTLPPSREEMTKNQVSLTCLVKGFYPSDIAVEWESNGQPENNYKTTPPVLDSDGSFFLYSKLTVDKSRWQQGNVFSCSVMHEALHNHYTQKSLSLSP
light: B1 light
notes: Parent antibody with SG1 human heavy chain constant region; also called MS1032LO06-SG1
B3: M103205H795-MY335 / M103202L889-SK1 (antibody, human IgG1, kappa)
heavy: B1 heavy with I238T, Q313R, D415K
light: B1 light
notes: CH with G236T/H268D/Q311R/A330K/D413K against SG1 (EU numbering); also called MS1032LO06-MY335
B4: M103205H795-PK2 / M103202L889-SK1 (antibody, human IgG1, kappa)
heavy: B1 heavy with I238N, D270E, P398M, S402R, D415K
light: B1 light
notes: CH with G236N/H268E/A330K/P396M/S400R/D413K against SG1 (EU numbering); also called MS1032LO06-PK2; MS103205H795-PK2
B5: M103205H795-MY101 / M103202L889-SK1 (antibody, human IgG1, kappa)
heavy: B1 heavy with I238N, D270E, P398M
light: B1 light
notes: CH with G236N/H268E/A330K/P396M against SG1 (EU numbering); also called MS1032LO06-MY101
B6: M103205H795-MY351 / M103202L889-SK1 (antibody, human IgG1, kappa)
heavy: B1 heavy with I238N, Q313R, D415K
light: B1 light
notes: CH with G236N/H268D/Q311R/A330K/D413K against SG1 (EU numbering); also called MS1032LO06-MY351
B7: M103205H795-MY205 / M103202L889-SK1 (antibody, human IgG1, kappa)
heavy: B1 heavy with I238N, Q297L
light: B1 light
notes: CH with G236N/H268D/Q295L/A330K against SG1 (EU numbering); also called MS1032LO06-MY205
B8: M103205H795-MY344 / M103202L889-SK1 (antibody, human IgG1, kappa)
heavy: B1 heavy with I238N, Q297L, Q313R, D415K
light: B1 light
notes: CH with G236N/H268D/Q295L/Q311R/A330K/D413K against SG1 (EU numbering); also called MS1032LO06-MY344
B9: M103205H795-MY201 / M103202L889-SK1 (antibody, human IgG1, kappa)
heavy: B1 heavy with I238N
light: B1 light
notes: CH with G236N/H268D/A330K against SG1 (EU numbering); also called MS1032LO06-MY201

How the values were obtained:
[1] = molecular target: T1, cynomolgus monkey FcγRIIa1 …; test: SPR; KD of SG1 divided by KD of the variant;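 also: relative to parent M103205H795-SG1 carrying the SG1 human heavy chain constant region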
[2] = molecular target: T8, cynomolgus monkey FcγRIIIaS extracellular domain, His-tagged (cynomolgus monkey, UniProt A3RFZ7 21-206 (rhesus entry)); test: SPR; KD of SG1 divided by KD of the variant;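 also: relative to parent M103205H795-SG1 carrying the SG1 human heavy chain constant region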
T8 construct: also called cyno FcgRIIIaS; cynoFcγRIIIaS; not shown: His-tag added to the C-terminus
T8 sequence (A3RFZ7 21-206): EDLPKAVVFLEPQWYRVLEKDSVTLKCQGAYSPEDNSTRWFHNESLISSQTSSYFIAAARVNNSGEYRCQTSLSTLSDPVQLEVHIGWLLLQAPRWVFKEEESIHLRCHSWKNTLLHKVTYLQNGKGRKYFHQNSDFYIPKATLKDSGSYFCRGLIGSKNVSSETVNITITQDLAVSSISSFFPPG

[3] = molecular target: T2, cynomolgus monkey FcγRIIa2 …; test: SPR; KD of SG1 divided by KD of the variant;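 also: relative to parent M103205H795-SG1 carrying the SG1 human heavy chain constant region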
[4] = molecular target: T3, cynomolgus monkey FcγRIIb extracellular …; test: SPR (BIACORE), antibody captured, FcγR analyte
Procedure: (§1) The kinetic analysis of interactions between these antibodies and FcγR was carried out using BIACORE® T200 or BIACORE® 4000 (GE Healthcare). HBS-EP+ (GE Healthcare) was used as the running buffer, and the measurement temperature was set to 25° C. A chip produced by immobilizing Protein A. Protein A/G or mouse anti-human IgG kappa light chain (BD Biosciences) onto a Series S Sensor Chip CM4 or CM5 (GE Healthcare) by the amine-coupling method was used. […] After the measurement, the antibody captured on the chip was washed off by allowing reaction with 10 mM glycine-HCl, pH1.5 and 25 mM NaOH so that the chip was regenerated and used repeatedly. The sensorgrams obtained as measurement results were analyzed by the 1:1 Langmuir binding model using the BIACORE® Evaluation Software to calculate the binding rate constant ka (L/mol/s) and dissociation rate constant kd (l/s), and the dissociation constant KD (mol/L) was calculated from these values. […] Regarding such interactions, KD values were calculated using the following 1:1 binding model described in BIACORE® T100 Software Handbook BR1006-48 Edition AE.
(§2) The behavior of interacting molecules according to the 1:1 binding model on BIACORE® can be described by Equation 1: Req=C·R max/(KD+C)+RI, wherein, Req is a plot of steady-state binding levels to analyte concentration. C is concentration, RI is bulk refractive index contribution in the sample, and Rmax is analyte binding capacity of the surface. When this equation is rearranged, KD can be expressed as Equation 2: KD=C·Rmax/(Req−RI)−C. KD can be calculated by substituting the values of Rmax, RI, and C into Equation 1 or Equation 2. From the current measurement conditions, RI=0, C=2 μmol/L can be used.

[5] = molecular target: T9, cynomolgus monkey FcγRIIIaS extracellular domain, C-terminal His-tag (cynomolgus monkey, UniProt A3RFZ7 21-206 (rhesus entry)); test: SPR (BIACORE), antibody captured, FcγR analyte
T9 construct: also called cyno FcγRIIIaS; cynoFcγRIIIaS; not shown: His-tag added to C-terminus
T9 sequence (A3RFZ7 21-206): as above
Procedure: as §1, §2

[6] = molecular target: T4, human FcγRIIb extracellular domain, …; test: SPR (BIACORE), antibody captured, FcγR analyte
Procedure: as §1, §2

[7] = molecular target: T10, human FcγRIIIaV extracellular domain, C-terminal His-tag (human, UniProt P08637 17-208); test: SPR (BIACORE), antibody captured, FcγR analyte
T10 construct: also called FcgRIIIaV; not shown: His-tag added to C-terminus
T10 sequence (P08637 17-208 F176V): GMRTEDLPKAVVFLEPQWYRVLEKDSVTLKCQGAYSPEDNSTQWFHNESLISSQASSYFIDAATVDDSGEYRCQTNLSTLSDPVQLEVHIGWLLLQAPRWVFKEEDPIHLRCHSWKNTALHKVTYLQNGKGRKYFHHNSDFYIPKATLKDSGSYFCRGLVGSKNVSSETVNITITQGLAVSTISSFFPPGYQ
Procedure: as §1, §2

[8] = molecular target: T5, cynomolgus monkey FcγRIIa3 …; test: SPR (BIACORE), antibody captured, FcγR analyte
Procedure: as §1, §2

[9] = molecular target: T6, cynomolgus monkey FcγRIIa2 …; test: SPR (BIACORE), antibody captured, FcγR analyte
Procedure: as §1, §2

[10] = molecular target: T7, cynomolgus monkey FcγRIIa1 …; test: SPR (BIACORE), antibody captured, FcγR analyte
Procedure: as §1, §2

Binder	KD fold (SG1 = 1) [1] [fold]	KD fold (SG1 = 1) [2] [fold]	KD fold (SG1 = 1) [3] [fold]	Kd [4] [nM]	Kd [5] [nM]	Kd [6] [nM]	Kd [7] [nM]	Kd [8] [nM]	Kd [9] [nM]	Kd [10] [nM]
B1	1.3	0.13	2.6	–	–	–	–	–	–	–
B2	–	–	–	1800	360	4600	810	1700	5100	3200
B3	–	–	–	650	1500	2300	5000	2700	1700	2000
B4	–	–	–	380	3900	590	13000	3800	1300	1300
B5	–	–	–	350	3200	490	11000	3600	1200	1100
B6	–	–	–	350	5200	1200	14000	1900	760	920
B7	–	–	–	250	6000	560	13000	3000	1100	900
B8	–	–	–	310	4900	720	19000	2200	1100	890
B9	–	–	–	430	5700	1100	24000	3900	1400	1400
